Assay results reported in patent US20240209099A1 (SUZHOU TRANSCENTA THERAPEUTICS, published 2024).
Where “and” joins values, the source holds several entries; their conditions need not be identical. Identical values can stand only once.

Columns and labels:
[1] = target: T1, Recombinant Human VEGFR2/KDR Protein, His tag (hVEGFR2-his) (human, UniProt P35968 20-764); test: ELISA, hVEGFR2-his coated
T1 construct: Expressed in HEK293, bought from ACRO Biosystems; also called human VEGFR2-his; Human VEGFR2/KDR-His
T1 sequence (P35968 other isoform, or with tags, fused parts or gaps): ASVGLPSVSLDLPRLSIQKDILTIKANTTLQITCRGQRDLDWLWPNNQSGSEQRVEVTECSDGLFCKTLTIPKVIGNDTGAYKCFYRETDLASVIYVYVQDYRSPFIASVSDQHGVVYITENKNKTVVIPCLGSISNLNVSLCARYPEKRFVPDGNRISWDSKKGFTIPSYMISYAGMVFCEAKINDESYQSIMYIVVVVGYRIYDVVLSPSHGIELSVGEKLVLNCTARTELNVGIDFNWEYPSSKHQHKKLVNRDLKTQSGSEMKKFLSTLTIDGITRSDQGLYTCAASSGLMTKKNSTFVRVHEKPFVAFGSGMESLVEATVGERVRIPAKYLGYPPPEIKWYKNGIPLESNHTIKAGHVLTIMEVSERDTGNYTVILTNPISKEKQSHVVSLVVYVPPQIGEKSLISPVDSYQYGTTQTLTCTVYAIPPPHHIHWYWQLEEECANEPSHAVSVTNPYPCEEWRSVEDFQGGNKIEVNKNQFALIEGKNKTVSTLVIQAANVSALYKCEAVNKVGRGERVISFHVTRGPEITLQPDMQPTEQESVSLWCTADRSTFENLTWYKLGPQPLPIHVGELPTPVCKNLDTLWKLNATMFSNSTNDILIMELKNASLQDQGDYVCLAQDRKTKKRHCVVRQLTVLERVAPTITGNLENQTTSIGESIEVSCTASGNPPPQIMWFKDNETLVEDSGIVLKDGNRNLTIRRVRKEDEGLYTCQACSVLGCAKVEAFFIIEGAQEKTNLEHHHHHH
Experimental: Same protocol of Example 2 antibody screening by ELISA assay. Briefly, 0.5 μg/ml hVEGFR2-his was coated and serially diluted purified antibodies would bind to coated antigen. Using HRP conjugated goat anti-mouse Fc antibody could detect binding signals of each antibody.
The hybridoma antibodies have similar affinity to human.

[2] = target: T1, Recombinant Human VEGFR2/KDR Protein, …; test: competition ELISA: hVEGFR2-his coated (1 ug/ml), antibody titrated, then 0.3 ug/ml hVEGF-A added and bound VEGF-A detected; blocked ligand hVEGF-A
Experimental: High-binding clear polystyrene 96 well plates were coated with 100 μl/well of 1 μg/ml hVEGFR2-his overnight at 4° C. After washing and blocking, serial diluted antibodies (from 10 μg/ml to 0.0006 μg/ml) were added and incubate for 1 hour at RT. 0.3 μg/ml hVEGF-A (Acrobiosystem, Cat #VE5-H4210) were added and incubated for 2 hour at RT. Then 100 μl/well of 0.25 μg/ml Biotinylated Rabbit Anti-human VEGF-A (Peprotech, Cat #400-P10Bt) was then added for detecting bound VEGF-A. Then 100 μl/well of a solution of HRP conjugated Neutravidin antibody (Pierce, Cat #31001) and TMB were added sequentially. Finally, reaction was terminated using 0.64M H₂SO₄ and plates were read at 450 nm.

[3] = target: T1, Recombinant Human VEGFR2/KDR Protein, …; test: SPR (Biacore), antibody captured by anti-Fc, antigen 2.5-80 nM; second entry for mAb054 10D11F4D1F6 (r13; r11 gives another run)
Experimental: A CM5 sensor chip was activated in each flow cell by 7-min injection (10 μl/min) of freshly prepared 1:1 50 mM N-hydroxysuccinimide (NHS): 200 mM 1-ethyl-3-(3-dimethylaminopropyl)-carbodiimide (EDC). Then anti-human Fc antibody (GE Healthcare) in a concentration of 10 μg/ml in 10 mM sodium acetate buffer PH 5.0 was injected onto the activated chip at 10 μl/min (HBS-EP running buffer: 10 mM HEPES, 150 mM NaCl, 3.4 mM EDTA, 0.005% surfactant P20, pH 7.4). The remaining active coupling sites were blocked by 7 min injection of 1M ethanolamine at 10 μl/min. The immobilization level of each flow cell is ˜9000RU. Antibodies were captured in FC2 by anti-human Fc IgG or anti-mouse Fc (GE Healthcare) to 200˜300RU. FC1 was used as the reference cell. Antigen was injected at varying concentrations (2.5 nM, 5 nM, 10 nM, 20 nM, 40 nM and 80 nM) after capture of antibody. The association time for antibody binding antigen is 180s. Surface Regeneration condition is 120s at 10 μl/min in Gly pH1.5. The signals with captured antibody subtracted from those without captured antibody were calculated with Biacore X100 evaluation software ver. 2.0 (Biacore).

[4] = target: T1, Recombinant Human VEGFR2/KDR Protein, …; test: competition ELISA on coated hVEGFR2-his: hybridoma antibody titrated against 100 ng/ml chimeric 002C, anti-human IgG Fc-HRP
[5] = target: T1, Recombinant Human VEGFR2/KDR Protein, …; test: SPR (Biacore), antibody captured by anti-Fc, antigen 2.5-80 nM
Outline: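 Human or mouse Fc-captured antibody (200–300 RU) on anti-Fc CM5 surface; antigen injected at 2.5–80 nM in HBS-EP pH 7.4 with 180 s association. Reference-cell-subtracted sensorgrams; regeneration with glycine pH 1.5.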

[6] = target: T2, human VEGFR2 on HUVEC cells (human, UniProt P35968 20-1356); test: flow cytometry on HUVEC cells, percent shifted cells (Shift%), anti-mouse IgG-PE
T2 construct: also called hVEGFR2 on HUVEC
T2 sequence (P35968 20-1356 V297I/Q472H limits assumed): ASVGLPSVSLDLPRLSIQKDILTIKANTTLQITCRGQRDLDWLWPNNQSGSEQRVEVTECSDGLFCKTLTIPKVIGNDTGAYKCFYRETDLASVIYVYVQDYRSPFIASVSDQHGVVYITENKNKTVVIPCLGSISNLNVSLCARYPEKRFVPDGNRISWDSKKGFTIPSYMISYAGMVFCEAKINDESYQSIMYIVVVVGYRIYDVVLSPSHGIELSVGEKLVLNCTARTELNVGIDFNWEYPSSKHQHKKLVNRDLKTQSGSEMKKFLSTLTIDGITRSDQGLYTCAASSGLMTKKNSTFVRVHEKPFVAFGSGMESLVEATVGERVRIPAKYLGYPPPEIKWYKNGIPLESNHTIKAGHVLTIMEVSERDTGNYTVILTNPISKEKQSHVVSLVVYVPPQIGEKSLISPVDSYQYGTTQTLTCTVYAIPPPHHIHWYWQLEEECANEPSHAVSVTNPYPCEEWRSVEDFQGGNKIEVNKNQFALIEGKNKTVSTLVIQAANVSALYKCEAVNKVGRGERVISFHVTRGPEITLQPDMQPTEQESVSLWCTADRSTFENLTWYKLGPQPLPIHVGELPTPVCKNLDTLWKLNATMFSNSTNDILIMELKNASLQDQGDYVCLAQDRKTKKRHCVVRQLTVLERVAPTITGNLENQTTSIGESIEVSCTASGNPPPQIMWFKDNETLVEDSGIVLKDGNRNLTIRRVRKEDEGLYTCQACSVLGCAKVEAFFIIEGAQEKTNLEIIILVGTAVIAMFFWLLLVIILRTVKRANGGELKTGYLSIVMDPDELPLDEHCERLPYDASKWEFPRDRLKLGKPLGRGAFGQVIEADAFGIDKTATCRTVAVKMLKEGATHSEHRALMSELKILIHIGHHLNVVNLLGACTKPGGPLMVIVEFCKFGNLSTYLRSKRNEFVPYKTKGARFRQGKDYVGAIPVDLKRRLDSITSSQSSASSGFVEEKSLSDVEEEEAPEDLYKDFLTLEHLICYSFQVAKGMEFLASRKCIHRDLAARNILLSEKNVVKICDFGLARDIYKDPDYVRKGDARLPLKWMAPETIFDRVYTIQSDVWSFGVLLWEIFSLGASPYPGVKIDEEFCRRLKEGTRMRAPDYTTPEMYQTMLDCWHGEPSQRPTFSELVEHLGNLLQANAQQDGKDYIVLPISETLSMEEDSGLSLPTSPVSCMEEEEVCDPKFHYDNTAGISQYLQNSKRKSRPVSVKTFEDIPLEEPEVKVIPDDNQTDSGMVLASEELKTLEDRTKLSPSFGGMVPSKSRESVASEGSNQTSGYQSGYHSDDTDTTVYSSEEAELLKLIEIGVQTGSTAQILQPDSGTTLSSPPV
Experimental: Log phase HUVEC cells were collected, counted and resuspended in FACS buffer (5% BSA+PBS). 2×10∧5 cells were added to each tube and then washed once with PBS (1500 rpm, 5 mins, RT). Then […] serial diluted VEGFR2 antibodies purified from hybridoma supernatant in FACS buffer were added into corresponding tubes and were incubated at 4° C. for 1 hr. The cells were then washed twice with 1 ml PBS, followed by adding 100 μl/tube of 2nd antibody (1:400 anti-mIgG (H+L)-PE, Cell signaling #8887) in FACS buffer. The cells were incubated at 4° C. for 0.5 hr and then washed twice with PBS, followed by resuspending cells in 600 μl PBS for each sample. The cells were then transferred into FACS tube and the bindings of the antibodies to the cells were detected using flow cytometry (BD Accuri C6) (see FIG. 3).
The percentage of positive binding cells was calculated and fit by Graphpad Prism Software.

mouse VEGFR2 [7] = target: T3, mouse VEGFR2 (mouse, UniProt P35918 20-762, limits assumed); test: ELISA, 500 ng/mL mouse VEGFR2 coated, three lots
T3 sequence (P35918 20-762 limits assumed): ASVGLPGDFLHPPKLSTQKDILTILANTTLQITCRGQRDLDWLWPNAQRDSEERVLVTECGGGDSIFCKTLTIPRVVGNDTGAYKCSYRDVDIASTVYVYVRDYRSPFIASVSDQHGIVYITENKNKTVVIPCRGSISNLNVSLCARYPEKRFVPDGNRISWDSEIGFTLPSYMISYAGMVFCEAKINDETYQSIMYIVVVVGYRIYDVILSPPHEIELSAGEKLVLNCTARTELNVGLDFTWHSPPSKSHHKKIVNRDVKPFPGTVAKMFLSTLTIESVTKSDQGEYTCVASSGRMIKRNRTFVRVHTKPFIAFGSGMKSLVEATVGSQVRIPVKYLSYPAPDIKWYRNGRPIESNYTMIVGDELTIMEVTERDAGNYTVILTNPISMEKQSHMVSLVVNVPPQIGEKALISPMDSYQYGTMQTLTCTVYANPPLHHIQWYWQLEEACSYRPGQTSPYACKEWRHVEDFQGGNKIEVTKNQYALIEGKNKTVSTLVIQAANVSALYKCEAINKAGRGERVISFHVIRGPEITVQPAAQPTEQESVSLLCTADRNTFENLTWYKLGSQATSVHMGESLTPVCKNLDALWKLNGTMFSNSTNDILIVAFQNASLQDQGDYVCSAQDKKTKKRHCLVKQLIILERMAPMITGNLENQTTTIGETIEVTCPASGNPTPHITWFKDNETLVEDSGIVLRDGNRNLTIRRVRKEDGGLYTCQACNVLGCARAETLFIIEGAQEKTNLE
Experimental: (§1) ELISA binding assay was conducted to confirm its binding affinity. Briefly, ELISA plates were coated with 500 ng/mL mouse VEGFR2 in coating buffer (0.16% Na₂CO₃, 0.30% NaHCO₃) and incubated at 4° C. overnight. After twice washing, blocking buffer (1% BSA, 1% goat serum, 0.05% Tween20 in PBS) was added and plates were incubated at room temperature for 2 hours. After three times washing, serial diluted chimeric-DC101 was added in dilution buffer (1% BSA, 1% goat serum, 0.01% Tween20 in PBS) and plates were incubated at room temperature for 3 hours. After three times washing, goat anti-human HRP (1:5000 diluted) was added and plates were incubated at room temperature for 1 hour. Finally, after three times washing, TMB was added and 4 mins later 0.16 mol/L sulfuric acid was added to terminate the reaction. OD450 nm was read and recorded.

mouse VEGFR2 [8] = target: T3, mouse VEGFR2; test: ELISA, mouse VEGFR2 coated (500 ng/mL), goat anti-human HRP
Experimental: as §1

mouse VEGFR2 [9] = target: T3, mouse VEGFR2; test: competition ELISA: human VEGF165 coated (250 ng/mL), antibody titrated with 1000 ng/mL mouse VEGFR2, bound mouse VEGFR2 detected; blocked ligand human VEGF165
Experimental: ELISA blocking assay was conducted to confirm its VEGF blockade activity. Briefly, ELISA plates were coated with 250 ng/mL recombinant human VEGF165 in coating buffer and incubated at 4° C. overnight. After twice washing, blocking buffer was added and plates were incubated at room temperature for 2 hours. After three times washing, serial diluted chimeric-DC101 was added in dilution buffer and then 1000 ng/mL mouse VEGFR2 was added. Plates were incubated at room temperature for 3 hours. After three times washing, polyclonal anti-mouse VEGFR2 with mouse Fc (1: 1000) was added and plates were incubated at room temperature for 1 hour. After three times washing, goat anti-mouse HRP (1:5000 diluted) was added and plates were incubated at room temperature for 1 hour. Finally, after three times washing, TMB was added and 4 mins later 0.16 mol/L sulfuric acid was added to terminate the reaction. OD450 nm was read and recorded.

EC50 [1]	IC50 [2]	koff [3]	IC50 (read off the curve) [4]	koff [5]	kon [5]	EC50 [6]	EC50 (mouse VEGFR2 [7])	EC50 (mouse VEGFR2 [8])	IC50 (mouse VEGFR2 [9])	Binder
0.00809 µg/mL	0.0433 µg/mL	1.22e-05 s⁻¹	~0.1 µg/mL	9.12e-05 s⁻¹	91800 M⁻¹ s⁻¹ and 97000 M⁻¹ s⁻¹	0.0612 µg/mL				054 (mouse hybridoma antibody) (antibody, V domains shown, Mouse antibody purified from hybridoma; also called mAb054; 10D11) VH: EVQLVESGGDLVKPGGSLKLSCAASGFTFSMYGMSWVRQTPDKRLEWVASISIGGSYTYYADSVEGRFIISRENAKNTLFLQMNSLKSEDTALYYCARELDGNYDYWGQGTTLTVSS VL: HIMITQDELSNPVTFGESVSISCRSSKSLLYKDGKTYLNWFLQRPGQSPQLLIYLMSTRASGVSDRFSGSGSGTDFTLEISRVKAEDVGIYYCQQLVEYPFTFGSGTKLEIK
							~0.06 µg/mL	0.0645 µg/mL and 0.0477 µg/mL and 0.0764 µg/mL	0.301 µg/mL and 0.28 µg/mL and 0.265 µg/mL	chimeric-DC101 (anti-mouse VEGFR2 antibody DC101 with human IgG1 Fc) (antibody, V domains shown) VH: EVQLVETGGGLVQPGNSLKLSCATSGFIFSTTWMNWIRQTPGKRLEWLAQIEDKSNNYFISYSESVKGRFTISRDDSKSSVYLQMNNLKEEDTAIYYCSWKYRSNYYFDYWGQGVMVTVSS VL: DIVLTQSPALAVSLEQRATISCKTSQNVDYYGISYLHWYQQKPGQQPKLLIYEGSNLASGIPARFSGSGSGTDFTLTIDPVEADDIVTYYCQQSKDYPYTFGAGTKLELKR
